According to ChEMBL document CHEMBL1275330, “Rational design, synthesis, and evaluation of new selective inhibitors of microbial class II (zinc dependent) fructose bis-phosphate aldolases” (J Med Chem, 2010):

What was measured:
[1] = substrate: O=C(COP(=O)(O)O)N(O)CCCCOP(=O)(O)O; details: Oryctolagus cuniculus
[2] = substrate: O=C(COP(=O)(O)O)N(O)CCCOP(=O)(O)O; details: Oryctolagus cuniculus
[3] = substrate: CCCCCCCCCCCC(=O)OCCCCN(O)C(=O)COP(=O)(O)O; details: Helicobacter pylori
[4] = substrate: O=C(COP(=O)(O)O)N(O)CCCCOP(=O)(O)O; details: Helicobacter pylori
[5] = substrate: O=C(COP(=O)(O)O)N(O)CCCCOP(=O)(O)O; details: Candida albicans
[6] = substrate: CCCCCCCCCCCC(=O)OCCCCN(O)C(=O)COP(=O)(O)O; details: Mycobacterium tuberculosis
[7] = substrate: CCCCCCCCCCCC(=O)OCCCCN(O)C(=O)COP(=O)(O)O; details: Yersinia pestis

B1: Fructose-bisphosphate aldolase A (Oryctolagus cuniculus), P00883 (protein)
chain: MPHSHPALTPEQKKELSDIAHRIVAPGKGILAADESTGSIAKRLQSIGTENTEENRRFYRQLLLTADDRVNPCIGGVILFHETLYQKADDGRPFPQVIKSKGGVVGIKVDKGVVPLAGTNGETTTQGLDGLSERCAQYKKDGADFAKWRCVLKIGEHTPSALAIMENANVLARYASICQQNGIVPIVEPEILPDGDHDLKRCQYVTEKVLAAVYKALSDHHIYLEGTLLKPNMVTPGHACTQKYSHEEIAMATVTALRRTVPPAVTGVTFLSGGQSEEEASINLNAINKCPLLKPWALTFSYGRALQASALKAWGGKKENLKAAQEEYVKRALANSLACQGKYTPSGQAGAAASESLFISNHAY
B1 was tested. Which Km [1] did it give?
The Km was 15 µM.

What about the Km [2] of the same protein?
The Km was 264 µM.

B2: Fructose-bisphosphate aldolase (Helicobacter pylori (strain ATCC 700392 / 26695) (Campylobacterpylori)), P56109 (protein)
chain: MLVKGNEILLKAHKEGYGVGAFNFVNFEMLNAIFEAGNEENSPLFIQTSEGAIKYMGIDMAVGMVKTMCERYPHIPVALHLDHGTTFESCEKAVKAGFTSVMIDASHHAFEENLELTSKVVKMAHNAGVSVEAELGRLMGIEDNISVDEKDAVLVNPKEAEQFVKESQVDYLAPAIGTSHGAFKFKGEPKLDFERLQEVKRLTNIPLVLHGASAIPDNVRKSYLDAGGDLKGSKGVPFEFLQESVKGGINKVNTDTDLRIAFIAEVRKVANEDKSQFDLRKFFSPAQLALKNVVKERMKLLGSANKI
With B2 as the protein, how does the Km [3] read?
Its Km is 4 µM.

What about the Km [4] of the same protein?
Its Km is 0.07 µM.

B3: Fructose-bisphosphate aldolase (Candida albicans (strain SC5314 / ATCC MYA-2876) (Yeast)), Q9URB4 (protein)
chain: MAPPAVLSKSGVIYGKDVKDLFDYAQEKGFAIPAINVTSSSTVVAALEAARDNKAPIILQTSQGGAAYFAGKGVDNKDQAASIAGSIAAAHYIRAIAPTYGIPVVLHTDHCAKKLLPWFDGMLKADEEFFAKTGTPLFSSHMLDLSEETDDENIATCAKYFERMAKMGQWLEMEIGITGGEEDGVNNEHVEKDALYTSPETVFAVYESLHKISPNFSIAAAFGNVHGVYKPGNVQLRPEILGDHQVYAKKQIGTDAKHPLYLVFHGGSGSTQEEFNTAIKNGVVKVNLDTDCQYAYLTGIRDYVTNKIEYLKAPVGNPEGADKPNKKYFDPRVWVREGEKTMSKRIAEALDIFHTKGQL
With B3 as the protein, how does the Km [5] read?
The Km was 100 µM.

B4: Fructose-bisphosphate aldolase (Mycobacterium tuberculosis), P9WQA3 (protein)
chain: MPIATPEVYAEMLGQAKQNSYAFPAINCTSSETVNAAIKGFADAGSDGIIQFSTGGAEFGSGLGVKDMVTGAVALAEFTHVIAAKYPVNVALHTDHCPKDKLDSYVRPLLAISAQRVSKGGNPLFQSHMWDGSAVPIDENLAIAQELLKAAAAAKIILEIEIGVVGGEEDGVANEINEKLYTSPEDFEKTIEALGAGEHGKYLLAATFGNVHGVYKPGNVKLRPDILAQGQQVAAAKLGLPADAKPFDFVFHGGSGSLKSEIEEALRYGVVKMNVDTDTQYAFTRPIAGHMFTNYDGVLKVDGEVGVKKVYDPRSYLKKAEASMSQRVVQACNDLHCAGKSLTH
How did the Km [6] turn out when B4 was run?
The Km was 0.31 µM.

B5: Fructose-bisphosphate aldolase class II (Yersinia pestis), A0A380PJR2 (protein)
chain: MSKIFDFVKPGVITGDDVQKVFAVAKENNFALPAVNCVGTDSINAVLETAAKVRAPVIVQFSNGGAAFIAGKGVKTDAPQGAAILGAISGAHHVHQMAEHYGVPVILHTDHCAKKLLPWLDGLLDAGEKHFAATGKPLFSSHMIDLSEESLEENIEICSKYLTRMSKIGMTLEIELGCTGGEEDGVDNSHMDASSLYTQPQDVDYAYEKLNAISPRFTIAASFGNVHGVYKPGNVKLTPTILRDSQDYVSKKHNLPHNSLNFVFHGGSGSTAEEIKEAVSYGVVKMNIDTDTQWATWEGILNYYKKNEGYLQGQLGNPEGADKPNKKYYDPRVWLRAAQVTMITRLELAFKELNAIDVL
How did the Km [7] turn out when B5 was run?
Its Km is 0.234 µM.
